Measured values taken from PMC2700067, “Intracellular interactions between APOBEC3G, RNA, and HIV-1 Gag: APOBEC3G multimerization is dependent on its association with RNA” (Retrovirology, 2009).
Numbering of substitutions follows the chain as printed. In names and notes the source's numbering stands.

Tests used:
Assay in all cases: split reporter (BiFC, NanoBiT); BiFC quantified by flow cytometry: 293T cells co-transfected with 0.25 μg of each BiFC construct and mRFP1, harvested about 14 h after transfection and fixed; percent of mRFP+ cells that are YFP+, and mean intensity of YFP+ cells
Details in all cases: partners not purified
[1] = molecular target: T1, H65R-CY (human, UniProt Q9HC16 1-384, H65R)
T1 construct: APOBEC3G (A3G), human, CD1 mutant H65R; as A3G-CY with the mutation; also called CD1 mutant H65R of A3G-CY; source: HeLa and 293T cells, transfected, in living cells; 293T, transfected, in lysate (co-IP); not shown: CY (YFP residues 173-238), C-terminal, kept

[2] = molecular target: T2, F70A-CY (human, UniProt Q9HC16 1-384, F70A)
T2 construct: APOBEC3G (A3G), human, CD1 mutant F70A; as A3G-CY with the mutation; also called CD1 mutant F70A of A3G-CY; source: HeLa and 293T cells, transfected, in living cells; 293T, transfected, in lysate (co-IP); not shown: CY (YFP residues 173-238), C-terminal, kept

[3] = molecular target: T3, Y91A-CY (human, UniProt Q9HC16 1-384, Y91A)
T3 construct: APOBEC3G (A3G), human, CD1 mutant Y91A; as A3G-CY with the mutation; also called CD1 mutant Y91A of A3G-CY; source: HeLa and 293T cells, transfected, in living cells; not shown: CY (YFP residues 173-238), C-terminal, kept

B1: H65R-NY (natural protein, human, UniProt Q9HC16 1-384, looked up)
chain: MKPHFRNTVERMYRDTFSYNFYNRPILSRRNTVWLCYEVKTKGPSRPPLDAKIFRGQVYSELKYRPEMRFFHWFSKWRKLHRDQEYEVTWYISWSPCTKCTRDMATFLAEDPKVTLTIFVARLYYFWDPDYQEALRSLCQKRDGPRATMKIMNYDEFQHCWSKFVYSQRELFEPWNNLPKYYILLHIMLGEILRHSMDPPTFTFNFNNEPWVRGRHETYLCYEVERMHNDTWVLLNQRRGFLCNQAPHKHGFLEGRHAELCFLDVIPFWKLDLDQDYRVTCFTSWSPCFSCAQEMAKFISKNKHVSLCIFTARIYDDQGRCQEGLRTLAEAGAKISIMTYSEFKHCWDTFVDHQGCPFQPWDGLDEHSQDLSGRLRAILQNQEN
notes: APOBEC3G (A3G), human, CD1 mutant H65R; as A3G-NY with the mutation; also called CD1 mutant H65R of A3G-NY; source: HeLa and 293T cells, transfected, in living cells; not shown: NY (YFP residues 1-172), C-terminal, kept
[1]
  percent of mRFP+ cells that are YFP+ (BiFC): < 0.1%

B2: F70A-NY (natural protein, human, UniProt Q9HC16 1-384, looked up)
chain: B1 chain with R65H, F70A
notes: APOBEC3G (A3G), human, CD1 mutant F70A; as A3G-NY with the mutation; also called CD1 mutant F70A of A3G-NY; source: HeLa and 293T cells, transfected, in living cells; not shown: NY (YFP residues 1-172), C-terminal, kept
[2]
  percent of mRFP+ cells that are YFP+ (BiFC): < 0.1%

B3: Y91A-NY (natural protein, human, UniProt Q9HC16 1-384, looked up)
chain: B1 chain with R65H, Y91A
notes: APOBEC3G (A3G), human, CD1 mutant Y91A; as A3G-NY with the mutation; also called CD1 mutant Y91A of A3G-NY; source: HeLa and 293T cells, transfected, in living cells; not shown: NY (YFP residues 1-172), C-terminal, kept
[3]
  percent of mRFP+ cells that are YFP+ (BiFC): < 0.1%
